In patent US20250138018A1 (NEXTPOINT THERAPEUTICS, published 2025):

T1: CD20 on CD20+ Raji cells (UniProt P11836 1-297, limits assumed)
T1 construct: whole, on cells; Endogenous CD20 of the Raji cell line; also called TAA (CD20)
T1 sequence (looked up): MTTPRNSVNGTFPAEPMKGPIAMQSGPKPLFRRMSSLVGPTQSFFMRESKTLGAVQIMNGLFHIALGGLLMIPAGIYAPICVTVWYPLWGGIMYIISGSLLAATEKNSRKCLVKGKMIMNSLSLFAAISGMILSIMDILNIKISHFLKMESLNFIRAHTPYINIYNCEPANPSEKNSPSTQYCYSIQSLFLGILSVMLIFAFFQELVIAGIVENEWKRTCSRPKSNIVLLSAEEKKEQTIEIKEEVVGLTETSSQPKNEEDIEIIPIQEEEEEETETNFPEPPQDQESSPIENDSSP

B1: TK20-17C7-01 anti-TMIGD2/anti-CD20 bispecific antibody (bispecific antibody, human IgG1, kappa, L234A L235A)
heavy: not shown
light: QIVLSQSPAILSASPGEKVTMTCRASSSVSYIHWFQQKPGSSPKPWIYATSNLASGVPVRFSGSGSGTSYSLTISRVEAEDAATYYCQQWTSNPPTFGGGTKLEIKRTVAAPSVFIFPPSDEQLKSGTASVVCLLNNFYPREAKVQWKVDNALQSGNSQESVTEQDSKDSTYSLSSTLTLSKADYEKHKVYACEVTHQGLSSPVTKSFNRGEC
notes: Tetravalent Morrison format; copies: 2 + 2
B2: TK20-39C9-2134 anti-TMIGD2/anti-CD20 bispecific antibody (bispecific antibody, human IgG1, kappa, L234A L235A)
heavy: not shown
light: B1 light
notes: as for B1
B3: TK20-29F8-16 anti-TMIGD2/anti-CD20 bispecific antibody (bispecific antibody, human IgG1, kappa, L234A L235A)
heavy: not shown
light: B1 light
notes: as for B1

These binders were tested against T1, CD20 on CD20+ Raji cells (assay: Raji co-culture with TMIGD2-Jurkat NFAT reporter cells; binding told in words, not measured directly).
Procedure: Raji cells (2×10⁴) were plated in a 96-well white flat bottom tissue culture plate with anti-TMIGD2/anti-CD20 bispecific antibodies (TK20-17C7-01, TK20-29F8-16, and TK20-39C9-2134) in 50 μl R10 medium (RPMI 1640+10% Fetal bovine serum) at 3-fold serial dilutions ranging from 10-0.5 μg/mL. An anti-CD20 (IgG1 LALA) was included as a negative control. The cells were incubated at 37° C. for 30 minutes. TMIGD2-Jurkat NFAT reporter cells (4×10⁴) were added to each well with 1 μg/mL anti-CD3 antibody (OKT3) in 50 μl R10 medium. Cells were incubated at 37° C. for 6 hours and 100 ul of Bio-Glo™ luciferase assay reagent (Promega®, G7940) was added to each well. Luciferase activity was measured on a plate reader.

| binding result | Binder |
| --- | --- |
| binds | B1 |
| binds | B2 |
| binds | B3 |
